Data taken from paper PMC12494293, “Hexokinase 2 is an RNA-binding protein that regulates mRNA translation independently of glycolysis and induces melanoma cell proliferation”.

Biological target: T1, HK2 Δ16 (UniProt P52789 17-917, del1-16)
T1 sequence: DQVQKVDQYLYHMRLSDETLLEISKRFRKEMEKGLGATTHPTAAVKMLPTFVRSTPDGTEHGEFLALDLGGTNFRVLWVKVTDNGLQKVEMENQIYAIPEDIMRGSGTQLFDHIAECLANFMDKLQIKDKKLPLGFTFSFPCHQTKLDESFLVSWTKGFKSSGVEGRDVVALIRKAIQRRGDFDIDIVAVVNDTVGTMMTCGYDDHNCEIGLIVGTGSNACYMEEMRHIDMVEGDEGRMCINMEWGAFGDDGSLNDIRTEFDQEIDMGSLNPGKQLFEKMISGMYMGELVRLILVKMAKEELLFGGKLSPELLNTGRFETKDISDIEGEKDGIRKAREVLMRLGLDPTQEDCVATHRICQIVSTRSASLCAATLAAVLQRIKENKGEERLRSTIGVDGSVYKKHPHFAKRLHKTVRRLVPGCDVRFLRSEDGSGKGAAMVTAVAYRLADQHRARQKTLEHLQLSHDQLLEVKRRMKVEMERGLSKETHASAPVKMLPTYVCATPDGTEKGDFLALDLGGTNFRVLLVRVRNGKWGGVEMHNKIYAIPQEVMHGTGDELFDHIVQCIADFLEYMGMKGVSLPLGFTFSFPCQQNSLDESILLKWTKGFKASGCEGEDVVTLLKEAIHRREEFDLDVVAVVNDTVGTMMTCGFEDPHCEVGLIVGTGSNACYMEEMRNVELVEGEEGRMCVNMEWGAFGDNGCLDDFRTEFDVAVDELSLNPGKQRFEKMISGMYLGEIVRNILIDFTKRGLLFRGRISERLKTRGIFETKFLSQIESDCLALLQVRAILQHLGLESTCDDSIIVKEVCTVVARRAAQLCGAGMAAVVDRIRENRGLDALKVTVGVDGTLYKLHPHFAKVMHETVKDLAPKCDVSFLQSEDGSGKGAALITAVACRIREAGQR
Experiment: competition; 5 µM HK2 Δ16, 25 nM ATTO700 SOX10 SL; almost complete competition; 10 mM Tris-HCl pH 7.5, 1 mM EDTA, 100 mM KCl, 0.1 mM DTT, 5% glycerol, 0.01 mg/mL BSA, 0.125 mg/mL yeast tRNA, 20°C; gel at 4°C
Settings: protein: recombinant; (pET28b, Ni-NTA); hairpin

Binder: AGGACGAGCCCCAGACUGGAGGAGAGGUCC (structured_RNA) [SOX10 SL (unlabeled)]
- binding result: binds
